The text below walks through data of US8624010 (Amgen, dated 2014).

First the molecules themselves.
B1: murine CRP1 (CD28 related protein-1), membrane-bound (receptor)
chain: EINGSADHRMFSFHNGGVQISCKYPETVQQLKMRLFREREVLCELTKTKGSGNAVSIKNPMLCLYHLSNNSVSFFLNNPDSSQGSYYFCSLSIFDPPPFQERNLSGGYLHIYESQLCCQLKLWLPVGCAAFVVVLLFGCILIIWFSKKKYGSSVHDPNSEYMFMAAVNTNKKSRLAGVTS
notes: also called mCRP1; receptor for B7RP1
B2: B7.2 (ligand)
chain: VSVETQAYFNGTAYLPCPFTKAQNISLSELVVFWQDQQKLVLYEHYLGTEKLDSVNAKYLGRTSFDRNNWTLRLHNVQIKDMGSYDCFIQKKPPTGSIILQQTLTELSVIANFSEPEIKLAQNVTGNSGINLTCTSKQGHPKPKKMYFLITNSTNEYGDNMQISQDNVTELFSISNSLSLSFPDGVWHMTVVCVLETESMKISSKPLNFTQEFPSPQTYWK
notes: also called CD86; B7.2-Fc; not shown: The Fc part (detected with anti-human Fc) and any linker
B3: murine B7RP1 (B7 related protein-1), membrane-bound (ligand)
chain: ETEVGAMVGSNVVLSCIDPHRRHFNLSGLYVYWQIENPEVSVTYYLPYKSPGINVDSSYKNRGHLSLDSMKQGNFSLYLKNVTPQDTQEFTCRVFMNTATELVKILEEVVRLRVAANFSTPVISTSDSSNPGQERTYTCMSKNGYPEPNLYWINTTDNSLIDTALQNNTVYLNKLGLYDVISTLRLPWTSRGDVLCCVENVALHQNITSISQAESFTGNNTKNPQETHNNELKVLVPVLAVLAAAAFVSFIIYRRTRPHRSYTGPKTVQLELTDHA
notes: also called mB7RP1; ligand for CRP1

Assay [1] has as its target T1, murine B7RP1-Fc fusion protein (murine; human, UniProt P01857-1 96-330 = IgG part).
T1 construct: domain: carboxy terminal 235 amino acids of the human Fc gene (isotype IgG1); Made in 293T cells and purified on Protein A. The construct encodes residues 1-269; also called mB7RP1-Fc; muB7RP1-Fc
Briefly: flow cytometry on PMA/ionomycin-activated mouse splenocytes, lymphocyte gate; detection with goat anti-human Fc-FITC; no PE stain; receptor on the cells is putatively CRP1. As to the method:
The B7RP1-Fc fusion protein was utilized to detect cells that expressed receptors to B7RP1, presumably including the CRP1 protein (see Example 6), by FACS analysis. Spleens were removed from female C57/Black 6 mice, ground on 100 micron mesh filters to release the lymphocytes, passed through 70 micron filters, and then washed in 50 ml of RPMI-1640. They were pelleted at 1500 rpm, resuspended in fresh RPMI, mixed to break up the clumping cells, and passed through a 40 micron filter. T-cells to be activated were seeded into 6 well plates in RPMI-1640, 5% FBS, 1×PSG, PMA, ionomycin, and incubated at 37° C., 5% CO2 overnight. T-cell activation was checked by visual confirmation after 12 hr.
(§1) Activated spleen cells for immunostaining were washed in PBS, 0.5% BSA (Path-ocyte 4, ICN Pharmaceuticals) wash buffer, resuspended, and then aliquoted in 100 µl volumes. 15 µg/ml of either the CRP1-Fc fusion protein or the B7RP1-Fc fusion protein was added (1.5 µg/sample) as appropriate, and then the mixtures were incubated on ice for 30 min with occasional mixing. The cells were washed twice in 5.0 ml of wash buffer. Binding of the fusion proteins was visualized with 2 µg of goat-anti-human (GaHuFc-FITC) conjugated secondary antibody in a 100 µl volume for cell staining. […]

The assay “B7.2” has as its target B2. The assay is described as follows: ACAS cell surface display assay, Fc fusion protein on transfected cells, FITC anti-human Fc detection. As to the method: (§2) Figure 5: FIG. 5. Interaction of CRP1-Fc and B7RP1-Fc fusion proteins with membrane-bound proteins expressed in COS-7 cells. COS-7 cells transiently transfected with pcDNA3/CRP1, pcDNA3/B7RP1, or pcDNA3 vector alone. CHO D-cells were transfected with psDRα/hCD28 and stably expressed human CD28 (hCD28). Cells expressing membrane-bound CRP1, B7RP1, or hCD28, are represented in rows as indicated at the left side of the panel. Fc fusion proteins were incubated with the plate-bound cells in columns as indicated at the top of the panel. After incubation, cells were washed, and bound Fc fusion proteins were detected using an anti-human Fc antibody and ACAS (Adherent Cell Analysis and Sorting; ACAS Ultima, Meridian Instruments, Inc., Okemos, Mich.) analysis. Figure 6A: FIG. 6. FACS (Fluorescence-Activated Cell Sorter) analysis of expression of the receptor for B7RP1 (putatively, CRP1) on activated CD4+ and CD8+ T-cells. Mouse splenocytes were activated with PMA and ionomycin for 12 hours. B7RP1-Fc fusion protein, control Fc protein (Mock-Fc), or PBS (no stain), were incubated with the cells, washed, and subsequently incubated with goat-anti-human Fc-FITC conjugated antibody(GaHuFc-FITC) as indicated at the bottom of each panel. […]

For assay [2], the target named is B3. The assay is described as above. As to the method: as §2
In assay [3] the target is T2, murine CRP1-Fc fusion protein (murine; human, UniProt P01857-1 96-330 = IgG part).
T2 construct: domain: carboxy terminal 235 amino acids of the human Fc gene (isotype IgG1); Made in 293T cells and purified on Protein A. The construct encodes residues 1-147; also called mCRP1-Fc
Briefly: flow cytometry on non-activated mouse splenocytes, double stain with CD45R-PE; detection with goat anti-human Fc-FITC; ligand on the cells is presumably B7RP1. The method, then: PE conjugated cell marker antibody to CD45R (CD45R is a B-cell marker) or isotype control antibody (rat isotype), or PBS (no stain), were added as indicated at the left side of each individual panel.
as §1, with “staining. Cell marker antibodies conjugated with PE were added with the GaHUFc-FITC, as well as control isotype-PE conjugated antibody controls where indicated (rat isotype).” for “staining.”
The CRP1-Fc fusion protein was utilized to detect cells that expressed ligands to CRP1, presumably including the B7RP1 protein (see Example 8), by FACS analysis (FIG. 7). Splenocytes were prepared as in Example 8, except the 12 hr T-cell activation step was omitted and the cells were directly analyzed. […] Cells were detected that expressed both the CD45R B-cell marker and the putative ligands for CRP1, presumably including B7RP1 (Example 8).

For B1, the results for the binding result (in assay [1]; with B7.2) were “binds” and “no binding”, respectively.

With B2, in assay [2], the binding result is recorded as “no binding”.

Regarding B3, in assay [3], the binding result was “binds”.
